Experimental data reported in paper PMC7039193 (The Journal of Cell Biology, 2019).

Molecular target: GST-EVH1 domain of VASP (UniProt P50552 1-113)
Assay: pull-down

GST-EVH1 domain of VASP, sequence (P50552 1-113): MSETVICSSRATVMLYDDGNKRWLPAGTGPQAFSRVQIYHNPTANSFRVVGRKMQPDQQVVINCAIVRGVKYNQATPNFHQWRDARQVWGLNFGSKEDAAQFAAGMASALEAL

fold change of TRIM9 precipitated, Trim67-/- lysate against WT lysate: ~2 fold
B1: endogenous TRIM9 (mouse embryonic cortex) (natural protein, mouse (endogenous in embryonic cortex), UniProt Q8C7M3 1-817, looked up)
chain: MEEMEEELKCPVCGSFYREPIILPCSHNLCQACARNILVQTPESESPQSRRASGSGVSDYDYLDLDKMSLYSEADSGYGSYGGFASAPTTPCQKSPNGVRVFPPAMPPPPTHLSPALAPVPRNSCITCPQCHRSLILDDRGLRGFPKNRVLEGVIDRYQQSKAAALKCQLCEKAPKEATVMCEQCDVFYCDPCRLRCHPPRGPLAKHRLVPPAQGRVSRRLSPRKVSTCTDHELENHSMYCVQCKMPVCYQCLEEGKHSSHEVKALGAMWKLHKSQLSQALNGLSDRAKEAKEFLVQLRTMVQQIQENSVEFEACLVAQCDALIDALNRRKAQLLARVNKEHEHKLKVVRDQISHCTVKLRQTTGLMEYCLEVIKENDPSGFLQISDALIRRVHLTEDQWGKGTLTPRMTTDFDLSLDNSPLLQSIHQLDFVQVKASSPVPATPILQLEECCTHNNSATLSWKQPPLSTVAADGYILELDDGSGGQFREVYVGKETMCTVDGLHFNSTYNARVKAFNKTGVSPYSKTLVLQTSEAAGAHETKPMKDTDSEEQTLPFPVPSERLPLRRMSPFSSTLNLQPSFPGRSYFDFRSSPHQLSLHSSLQSLNAPGCNFETQSASYSQLVDIKKLLAVAWFAFDPGSAHSDIIFSNDNLTVTCSSYDDRVVLGKTGFSKGVHYWELTIDRYDNHPDPAFGVARIDVMKDMMLGKDDKAWAMYVDNNRSWFMHNNSHTNRTEGGITKGATIGVLLDLNRKTLTFFVNNEQQGPIAFENVEGLFFPAVSLNRNVQVSLWAPGLRACSGCYFKVCPGAVKSPQAPAP
